Measured values: US20140315251A1
Substitutions are numbered along the chain they refer to. One block for each binder: values may come before it.

What was measured:
[1] = target: Recombinant canine IL-31 produced in CHO cells (canine)
[2] = target: Recombinant canine IL-31 produced in CHO cells (canine); assay: cell-based or functional assay
[3] = target: Recombinant canine IL-31 produced in CHO cells (canine); assay: SPR (Biacore), IL-31 amine-coupled to the chip, mAb in solution, 1:1 fit
[4] = target: Recombinant canine IL-31 produced in CHO cells (canine); assay: SPR (Biacore), IL-31 amine-coupled to the chip, mAb in solution, 1:1 fit; Biacore affinity (SPR); weak, about 0.5 uM; not active in the DH82 pSTAT assay

Sequence of Recombinant canine IL-31 produced in CHO cells (canine) (chain, as listed by the source limits assumed, form in doubt): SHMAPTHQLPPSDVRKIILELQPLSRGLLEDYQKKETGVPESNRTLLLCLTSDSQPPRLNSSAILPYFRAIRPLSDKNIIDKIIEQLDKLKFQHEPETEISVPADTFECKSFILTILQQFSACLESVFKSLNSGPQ

B1: Caninized 34D03 (antibody, V domains shown)
VH: EVQLVESGGDLVKPGGSLRLSCVASGFTFSNYGMSWVRQAPGKGLQWVATISYGGSYTYYPDNIKGRFTISRDNAKNTLYLQMNSLRAEDTAMYYCVRGYGYDTMDYWGQGTLVTVSS
VL: EIVMTQSPASLSLSQEEKVTITCKASQSVSFAGTGLMHWYQQKPGQAPKLLIYRASNLEAGVPSRFSGSGSGTDFSFTISSLEPEDVAVYYCQQSREYPWTFGQGTKLEIKR
- IC50 (inhibition of canine IL-31 induced pSTAT signaling in canine DH82 monocytes) [1]: 2.29 µg/mL
- DH82 pSTAT Assay, Co-incubation IC50 [2]: 2.42 µg/ml
- DH82 pSTAT Assay, Pre-treatment IC50 [2]: 2.25 µg/ml
- Kd [3]: 29.1 pM

B2: Felinized 34D03 (antibody, V domains shown)
VH: B1 VH with E1D, S21T, F29Y, R87K, A88T, M93T
VL: EIQMTQSPSSLSASPGDRVTITCKASQSVSFAGTGLMHWYQQKPGKVPKLLIYRASNLEAGVPSRFSGSGSGTDFTLTISSLEPEDAATYYCQQSREYPWTFGQGTKLEIKR
- IC50 (inhibition of canine IL-31 induced pSTAT signaling in canine DH82 monocytes) [1]: 2.41 µg/mL

B7: Mouse 19D07 (antibody, V domains shown)
VH: EVKLVESGGGLVKPGGSLKLSCAASGFAFSSYDMSWVRQIPEKRLEWVATITSGGGYTYSADSVKGRFTISRDNARNTLYLQMSSLRSEDTAVYYCARQNWVVGLAYWGQGTLVTVSA
VL: DIVMSQSPSSLSVSAGDKVTMSCKSSQSLLNSGNQKNYLAWYQQKPWQPPKLLIYGASTRESGVPDRFTGSGSGTDFTLTISSVQAEDLAVYYCQNDYSYPYTFGGGTKLEIK
- DH82 pSTAT Assay, Co-incubation IC50 [2]: 1.76 µg/ml
- DH82 pSTAT Assay, Pre-treatment IC50 [2]: 3.46 µg/ml
- Kd [3]: 7.24 pM

B9: Caninized 19D07 (antibody, V domains shown)
VH: EVQLVESGGDLVKPGGSLRLSCVASGFTFSSYDMSWVRQAPGKGLQWVATITSGGGYTYSADSVKGRFTISRDNARNTLYLQMNSLRSEDTAVYYCARQNWVVGLAYWGQGTLVTVSS
VL: EIVMTQSPASLSLSQEEKVTITCKSSQSLLNSGNQKNYLAWYQQKPGQAPKLLIYGASTRESGVPSRFSGSGSGTDFSFTISSLEPEDVAVYYCQNDYSYPYTFGQGTKLEIKR
- Kd [3]: 923 pM

B12: Caninized 11E12 (antibody, V domains shown)
VH: EVQLVQSGAEVKKPGASVKVSCKTSGYTFKYYDINWVRQAPGAGLDWMGWIFPGDGGTKYNETFKGRVTLTADTSTSTAYMELSSLRAGDIAVYYCARGGTSVIRDAMDYWGQGTLVTVSS
VL: DIVMTQTPLSLSVSPGEPASISCRASESVDNYGISFMHWFQQKPGQSPQRLIYRASNLESGVPDRFSGSGSGTDFTLRISRVEADDAGVYYCQQSNKDPLTFGAGTKLEIKR
- Kd [4]: 506000 pM

B13: Caninized 11E12 FW2 (antibody, V domains shown)
VH: B12 VH
VL: B12 VL with F40Y, S47P, Q49K, R50L
- DH82 pSTAT Assay, Co-incubation IC50 [2]: 2.7 µg/ml
- DH82 pSTAT Assay, Pre-treatment IC50 [2]: 5.31 µg/ml
- Kd [3]: 147 pM

Continued, values first:

- DH82 pSTAT Assay, Co-incubation IC50 [2]: 1.61 µg/ml
- DH82 pSTAT Assay, Pre-treatment IC50 [2]: 2.28 µg/ml
- Kd [3]: 0.893 pM
B3: Mouse 11E12 (antibody, V domains shown)
VH: QVQLQQSGAELVKPGASVKLSCKASGYTFKYYDINWVRQRPEQGLEWIGWIFPGDGGTKYNETFKGKATLTTDKSSSTAYMQLSRLTSEDSAVYFCARGGTSVIRDAMDYWGQGTSVTVSS
VL: DIVLTQSPASLAVSLGQRATISCRASESVDNYGISFMHWYQQKPGQPPKLLIYRASNLESGIPARFSGSGSRTDFTLTINPVETDDVATYYCQQSNKDPLTFGAGTKLELK

- DH82 pSTAT Assay, Co-incubation IC50 [2]: 1.48 µg/ml
- DH82 pSTAT Assay, Pre-treatment IC50 [2]: 1.57 µg/ml
- Kd [3]: 0.268 pM
B4: Chimeric 11E12 (antibody, V domains shown)
VH: B3 VH
VL: DIVLTQSPASLAVSLGQRATISCRASESVDNYGISFMHWYQQKPGQPPKLLIYRASNLESGIPARFSGSGSRTDFTLTINPVETDDVATYYCQQSNKDPLTFGAGTKLELKR

- DH82 pSTAT Assay, Co-incubation IC50 [2]: 1.73 µg/ml
- DH82 pSTAT Assay, Pre-treatment IC50 [2]: 2.28 µg/ml
- Kd [3]: 1.01 pM
B5: Mouse 34D03 (antibody, V domains shown)
VH: EVQLVESGGDLVKPGGSLKLSCAASGFSFSNYGMSWVRQTPDKRLEWVATISYGGSYTYYPDNIKGRFTISRDNAKNTLYLQMSSLKSEDTAMYYCVRGYGYDTMDYWGQGTSVTVSS
VL: DILLTQSPASLAVSLGQRAIISCKASQSVSFAGTGLMHWYQQKPGQQPKLLIYRASNLEAGVPTRFSGSGSRTDFTLNIHPVEEEDAATYFCQQSREYPWTFGGGTKLEIK

- DH82 pSTAT Assay, Co-incubation IC50 [2]: 1.28 µg/ml
- DH82 pSTAT Assay, Pre-treatment IC50 [2]: 1.08 µg/ml
- Kd [3]: 4.65 pM
B6: Chimeric 34D03 (antibody, V domains shown)
VH: B5 VH
VL: DILLTQSPASLAVSLGQRAIISCKASQSVSFAGTGLMHWYQQKPGQQPKLLIYRASNLEAGVPTRFSGSGSRTDFTLNIHPVEEEDAATYFCQQSREYPWTFGGGTKLEIKR

- DH82 pSTAT Assay, Co-incubation IC50 [2]: 1.92 µg/ml
- DH82 pSTAT Assay, Pre-treatment IC50 [2]: 1.33 µg/ml
- Kd [3]: 0.515 pM
B8: Chimeric 19D07 (antibody, V domains shown)
VH: B7 VH
VL: DIVMSQSPSSLSVSAGDKVTMSCKSSQSLLNSGNQKNYLAWYQQKPWQPPKLLIYGASTRESGVPDRFTGSGSGTDFTLTISSVQAEDLAVYYCQNDYSYPYTFGGGTKLEIKR

- DH82 pSTAT Assay, Co-incubation IC50 [2]: 2.67 µg/ml
- DH82 pSTAT Assay, Pre-treatment IC50 [2]: 3.35 µg/ml
- Kd [3]: 4.97 pM
B10: 11E12 Heterochimera (antibody, V domains shown)
VH: B12 VH
VL: B4 VL

- DH82 pSTAT Assay, Co-incubation IC50 [2]: 5.49 µg/ml
- DH82 pSTAT Assay, Pre-treatment IC50 [2]: 5.18 µg/ml
- Kd [3]: 5.16 pM
B11: Caninized 11E12 13 (antibody, V domains shown)
VH: B12 VH
VL: B12 VL with R50L
